Results from patent US20110124012A1.

Tests used:
[1] = target: human B-type natriuretic peptide (human); assay: two-step sandwich chemiluminescent immunoassay ([..]); capture 15F11 on microparticles, acridinium-labeled 15C4; BNP at 577.4 pM
[2] = target: human B-type natriuretic peptide (human); assay: two-step sandwich chemiluminescent immunoassay ([..]); capture 15F11 on microparticles, acridinium-labeled 15C4; BNP at 0 pM (blank)
[3] = target: human B-type natriuretic peptide (human); assay: two-step sandwich chemiluminescent immunoassay ([..]); capture 8.1 on microparticles, acridinium-labeled 15C4; BNP at 86.6 pM
[4] = target: human B-type natriuretic peptide (human); assay: two-step sandwich chemiluminescent immunoassay ([..]); capture 15F11 on microparticles, acridinium-labeled 15C4; BNP at 86.6 pM
[5] = target: human N-terminal-pro B-type natriuretic peptide (human); assay: two-step sandwich chemiluminescent immunoassay ([..]); capture 15F11 on microparticles, acridinium-labeled 15C4; NT-proBNP at 86.6 pM
[6] = target: human N-terminal-pro B-type natriuretic peptide (human); assay: two-step sandwich chemiluminescent immunoassay ([..]); capture 15F11 on microparticles, acridinium-labeled 15C4; NT-proBNP at 0 pM (blank)
[7] = target: human pro B-type natriuretic peptide (human); assay: two-step sandwich chemiluminescent immunoassay ([..]); capture 8.1 on microparticles, acridinium-labeled 15C4; proBNP at 288.7 pM
[8] = target: human N-terminal-pro B-type natriuretic peptide (human); assay: two-step sandwich chemiluminescent immunoassay ([..]); capture 15F11 on microparticles, acridinium-labeled 15C4; NT-proBNP at 577.4 pM
[9] = target: human B-type natriuretic peptide (human); assay: two-step sandwich chemiluminescent immunoassay ([..]); capture 15F11 on microparticles, acridinium-labeled 15C4; BNP at 43.8 pM
[10] = target: human N-terminal-pro B-type natriuretic peptide (human); assay: two-step sandwich chemiluminescent immunoassay ([..]); capture 15F11 on microparticles, acridinium-labeled 15C4; NT-proBNP at 288.7 pM
[11] = target: human B-type natriuretic peptide (human); assay: two-step sandwich chemiluminescent immunoassay ([..]); capture 8.1 on microparticles, acridinium-labeled 15C4; BNP at 0 pM (blank)
[12] = target: human B-type natriuretic peptide (human); assay: two-step sandwich chemiluminescent immunoassay ([..]); capture 8.1 on microparticles, acridinium-labeled 15C4; BNP at 288.7 pM
[13] = target: human pro B-type natriuretic peptide (human); assay: two-step sandwich chemiluminescent immunoassay ([..]); capture 8.1 on microparticles, acridinium-labeled 15C4; proBNP at 43.8 pM
[14] = target: human pro B-type natriuretic peptide (human); assay: two-step sandwich chemiluminescent immunoassay ([..]); capture 8.1 on microparticles, acridinium-labeled 15C4; proBNP at 577.4 pM
[15] = target: human pro B-type natriuretic peptide (human); assay: two-step sandwich chemiluminescent immunoassay ([..]); capture 8.1 on microparticles, acridinium-labeled 15C4; proBNP at 0 pM (blank)
[16] = target: human pro B-type natriuretic peptide (human); assay: two-step sandwich chemiluminescent immunoassay ([..]); capture 8.1 on microparticles, acridinium-labeled 15C4; proBNP at 86.6 pM
[17] = target: human N-terminal-pro B-type natriuretic peptide (human); assay: two-step sandwich chemiluminescent immunoassay ([..]); capture 15F11 on microparticles, acridinium-labeled 15C4; NT-proBNP at 43.8 pM
[18] = target: human B-type natriuretic peptide (human); assay: two-step sandwich chemiluminescent immunoassay ([..]); capture 8.1 on microparticles, acridinium-labeled 15C4; BNP at 43.8 pM
[19] = target: human B-type natriuretic peptide (human); assay: two-step sandwich chemiluminescent immunoassay ([..]); capture 8.1 on microparticles, acridinium-labeled 15C4; BNP at 577.4 pM
[20] = target: human B-type natriuretic peptide (human); assay: two-step sandwich chemiluminescent immunoassay ([..]); capture 15F11 on microparticles, acridinium-labeled 15C4; BNP at 288.7 pM

Sequence of human N-terminal-pro B-type natriuretic peptide (human) (chain, as listed by the source): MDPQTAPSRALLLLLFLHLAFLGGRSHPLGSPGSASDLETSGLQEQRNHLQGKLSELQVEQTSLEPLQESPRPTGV
Sequence of human B-type natriuretic peptide (human) (peptide, as listed by the source): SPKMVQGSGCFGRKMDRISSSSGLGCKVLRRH
Sequence of human pro B-type natriuretic peptide (human) (chain, as listed by the source): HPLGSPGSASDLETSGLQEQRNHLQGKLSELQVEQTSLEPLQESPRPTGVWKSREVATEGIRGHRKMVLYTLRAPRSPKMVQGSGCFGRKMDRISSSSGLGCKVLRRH

- mean rlus [1]: 1140 RLU
- mean rlus [2]: 1200 RLU
- mean rlus [3]: 713 RLU
- mean rlus [4]: 1080 RLU
- mean rlus [5]: 62700 RLU
- mean rlus [6]: 1140 RLU
- mean rlus [7]: 43000 RLU
- mean rlus [8]: 658000 RLU
- mean rlus [9]: 1040 RLU
- mean rlus [10]: 317000 RLU
- mean rlus [11]: 745 RLU
- mean rlus [12]: 732 RLU
- mean rlus [13]: 5480 RLU
- mean rlus [14]: 116000 RLU
- mean rlus [15]: 659 RLU
- mean rlus [16]: 12000 RLU
- mean rlus [17]: 22400 RLU
- mean rlus [18]: 567 RLU
- mean rlus [19]: 701 RLU
- mean rlus [20]: 1130 RLU
Substance: monoclonal antibody 15C4
